Test results from patent US20250134969A1 (CASE WESTERN RESERVE UNIVERSITY, published 2025).
Ends that are not written are not given here.

Molecular target: T1, bovine serum albumin (bovine, UniProt P02769 25-607)
T1 construct: Negative control surface; also called BSA
Assay: BioFlux microfluidic adhesion, RhB-labeled “VBP+CBP”-decorated liposomes flowed at 25 dyn/cm^2 over albumin-coated channels, fluorescence microscopy
Procedure: The “VBP+CBP”-decorated nanoparticles and control (undecorated) nano-particles were evaluated for their specific adhesion capabilities utilizing a BioFlux 200 microfluidic system (Fluxion Biosciences) and observed under inverted fluorescence microscope imaging. This system allows simulation of a physiologically relevant vascular flow environment. Here, the microfluidic channels were incubated with either 0.3 wt % bovine serum albumin (BSA) in water or 40 μg/mL equine type 1 fibrillar collagen and 10 μg/mL vWF in 20 μM acetic acid for 1.5 h. Unbound albumin and collagen were removed with a saline rinse. […] Fluorescence microscopy imaging of particle Rhodamine B label was used to quantify the extent of particle adhesion to the coated surfaces. Thrombin release kinetics was measured by sealing the column-separated t-TLNPs in a MWCO 100 K dialysis bag, placing the bag in a TBS reservoir, and removing aliquots from the reservoir at predefined time points over the course of 6 h (fresh TBS was added back to the reservoir appropriately after each aliquot removal). […] Thrombin concentrations from the collected aliquots were evaluated using a human thrombin ELISA and plotted over time to determine the release profile. […]

T1 sequence (P02769 25-607 limits assumed): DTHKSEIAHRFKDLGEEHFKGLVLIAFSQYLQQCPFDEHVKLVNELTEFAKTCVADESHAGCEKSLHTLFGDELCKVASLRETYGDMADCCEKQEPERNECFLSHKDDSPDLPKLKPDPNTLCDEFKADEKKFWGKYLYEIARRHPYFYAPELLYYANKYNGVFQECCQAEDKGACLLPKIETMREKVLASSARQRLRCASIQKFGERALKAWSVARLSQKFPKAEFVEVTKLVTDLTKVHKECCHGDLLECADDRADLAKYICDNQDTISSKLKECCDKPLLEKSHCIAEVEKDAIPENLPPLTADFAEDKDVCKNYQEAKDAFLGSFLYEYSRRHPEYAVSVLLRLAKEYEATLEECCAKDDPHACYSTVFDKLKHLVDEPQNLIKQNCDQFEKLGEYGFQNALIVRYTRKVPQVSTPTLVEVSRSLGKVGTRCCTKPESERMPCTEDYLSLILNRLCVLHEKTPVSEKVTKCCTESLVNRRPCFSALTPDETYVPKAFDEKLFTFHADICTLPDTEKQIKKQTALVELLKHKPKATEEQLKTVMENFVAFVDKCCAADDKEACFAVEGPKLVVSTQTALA

binding result: no binding
B1: vWF-binding peptide (VBP), cysteinylated, CTRYLRIHPQSWVHQI, conjugated to DSPE-PEG2K and displayed on liposomal nanoparticles (peptide)
peptide: C(DSPE‑PEG2000‑maleimide)TRYLRIHPQSWVHQI
notes: In every adhesion assay the peptide stood on the surface of liposomes (1.25 mol % DSPE-PEG2K-VBP) together with CBP (1.25 mol %); also called DSPE-PEG2K-VBP
